In paper PMC5177502:

Target: Human recombinant FGF 1 (fibroblast growth factor 1) (human) (UniProt P05230)
Test: native MS

A stoichiometry N of 2 was found for “Human recombinant FGF 1 (fibroblast growth factor 1) (from UniProt P05230 16-155) (natural protein)” in this work.
